# Measurements reported in US20250002596A1, “NEUTRALIZING ANTI-CD95L MONOCLONAL ANTIBODIES” (INSTITUT NATIONAL DE LA SANTÉ ET DE LA RECHERCHE MÉDICALE, priority 2021, published 2025).
# “Also recorded” adds a separate entry of the source.
# T1: Ig-CD95L (soluble and cytotoxic human CD95L) (UniProt P48023 103-281)
# T1 chain: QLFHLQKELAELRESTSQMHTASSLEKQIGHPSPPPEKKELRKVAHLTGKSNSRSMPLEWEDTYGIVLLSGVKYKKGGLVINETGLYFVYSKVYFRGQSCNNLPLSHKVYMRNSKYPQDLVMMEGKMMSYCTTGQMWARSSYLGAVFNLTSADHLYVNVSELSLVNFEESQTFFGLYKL
# T2: human CD95L expressed on cells (UniProt P48023 1-281)
# T2 chain: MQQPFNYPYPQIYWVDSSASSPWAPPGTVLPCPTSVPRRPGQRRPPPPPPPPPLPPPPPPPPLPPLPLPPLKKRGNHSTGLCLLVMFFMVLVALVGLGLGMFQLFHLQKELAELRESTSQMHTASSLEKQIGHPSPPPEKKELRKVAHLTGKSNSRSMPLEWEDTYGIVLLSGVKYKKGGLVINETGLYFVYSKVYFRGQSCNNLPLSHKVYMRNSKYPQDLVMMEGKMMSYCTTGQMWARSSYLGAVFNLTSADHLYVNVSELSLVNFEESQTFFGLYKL
# T3: human CD95L expressed on cells (human, UniProt P48023 1-281)
# T3 construct: also called FasL; FASL
# T3 sequence: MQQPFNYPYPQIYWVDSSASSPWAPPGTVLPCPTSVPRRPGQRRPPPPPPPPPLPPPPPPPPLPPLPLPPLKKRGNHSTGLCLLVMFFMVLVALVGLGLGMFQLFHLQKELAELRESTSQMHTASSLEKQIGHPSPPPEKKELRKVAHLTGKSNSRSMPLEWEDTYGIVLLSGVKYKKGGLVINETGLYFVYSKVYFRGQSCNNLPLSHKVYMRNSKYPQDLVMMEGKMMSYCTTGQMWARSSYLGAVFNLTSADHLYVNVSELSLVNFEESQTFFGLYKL
# T4: human CD95L (Homo sapiens, UniProt P48023)
# T4 construct: expressed in transfected cells; host or cells: HEK/293T
# T4 sequence (P48023 1-281): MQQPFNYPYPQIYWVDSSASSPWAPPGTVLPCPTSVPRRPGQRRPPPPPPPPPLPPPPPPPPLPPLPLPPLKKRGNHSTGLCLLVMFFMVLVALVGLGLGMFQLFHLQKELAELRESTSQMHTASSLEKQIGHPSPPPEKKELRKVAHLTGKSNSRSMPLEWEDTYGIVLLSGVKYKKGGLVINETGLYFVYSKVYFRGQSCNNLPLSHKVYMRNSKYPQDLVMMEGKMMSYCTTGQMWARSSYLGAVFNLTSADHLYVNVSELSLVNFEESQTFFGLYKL
# How the values were obtained:
# IgCD95L = IgCD95L (UniProt P48023); experiment: SPR
# CD95L = CD95L (UniProt P48023); experiment: flow cytometry (1A12 cells)
# [1] = target: T1, Ig-CD95L (soluble and cytotoxic human …); experiment: SPR
# [2] = target: T2, human CD95L expressed on cells; experiment: flow cytometry (1A12 cells)
# [3] = target: T3, human CD95L expressed on cells; experiment: flow cytometry on HEK/293T cells transiently transfected with CD95L, antibody at 1 µg/ml
# Procedure: (§1) FIG. 1. JQ3 recognizes human and simian CD95L and is a stronger neutralizing anti-CD95L mAb as compared to the commercial anti-CD95L antibody NOK-1. A. Kon, Koff and Kd of JQ3 (IgG1κ) and NOK-1 (IgG1κ) hybridoma measured by surface plasmon resonance. IgCD95L was immobilized on a sensor chip S CM5 and antibody binding features was evaluated using a Biacore T200. B. The ability of the anti-human CD95L monoclonal antibodies NOK-1 and JQ3 and anti-mouse CD95L monoclonal antibody MFL3 (1 μg/ml) to recognize human, simian or mouse CD95L was determined by flow cytometry using HEK/293T cells transiently transfected with indicated CD95L-encoding pcDNA3.1 vectors. C. The binding efficiency of NOK-1 and JQ3 was compared by flow cytometry against CD95L-expressing 1A12 cell line. Left panel: Histograms report the intensity of CD95L staining (CD95L mean of fluorescence—isotypic mean of fluorescence) according to the antibody concentration (M). Right panels: examples of CD95L staining, in red the JQ3 or NOK-1 staining and in grey the isotypic staining. Table indicates the half maximal effective concentration (EC50) for each antibody. D. The neutralizing ability of NOK1 and JQ3 mAbs was compared by incubating CD95-sensitive Jurkat cell line (5.10⁵ cells) for 24 hours with 100 ng/ml of Ig-CD95L (soluble and cytotoxic human CD95L) in the presence or absence of the indicated concentrations of antibody.
# human CD95L = target: T4, human CD95L; experiment: Flow cytometry recognition of CD95L on transiently transfected HEK/293T cells; assay type: cell-based; conditions: antibody 1 μg/ml, HEK/293T cells transfected with CD95L-encoding pcDNA3.1 vector
# Procedure: as §1, with “JQ3 recognizes human and simian CD95L and is a stronger neutralizing anti-CD95L mAb as compared to the commercial anti-CD95L antibody NOK-1.” left out, “(5.10^5” for “(5.10⁵”
# simian CD95L = experiment: as above; assay type: cell-based; conditions: antibody 1 μg/ml, HEK/293T cells transfected with CD95L-encoding pcDNA3.1 vector
# Procedure: as §1, with “JQ3 recognizes human and simian CD95L and is a stronger neutralizing anti-CD95L mAb as compared to the commercial anti-CD95L antibody NOK-1.” left out, “(5.10^5” for “(5.10⁵”
# [4] = tested on: Ig-CD95L (soluble and cytotoxic human CD95L); experiment: Neutralization of Ig-CD95L-induced cell death in Jurkat T-cells (MTT assay); assay type: cell-based; conditions: 24 hours, 100 ng/ml Ig-CD95L, compared with NOK-1
# Procedure: as §1, with “JQ3 recognizes human and simian CD95L and is a stronger neutralizing anti-CD95L mAb as compared to the commercial anti-CD95L antibody NOK-1.” left out, “D. The neutralizing ability of NOK1 and JQ3 mAbs was compared by incubating CD95-sensitive Jurkat cell line (5.10⁵ cells) for 24 hours with 100 ng/ml of Ig-CD95L (soluble and cytotoxic human CD95L) in the presence or absence of the indicated concentrations of antibody.” left out
# Cell viability was assessed using MTT (3-(4,5-dimethylthiazol-2-yl)-2,5-diphenyltetrazolium bromide) assay as previously described (48). […] Then, MTT (15 μl at 5 mg/mL in PBS) was added, and after 4 h of incubation at 37° C., the absorbance was measured at 570 nm wavelength using the Infinite200Pro (Tecan, Männedorf, Switzerland).
# [5] = tested on: CD95-mediated Ca^2+ response in neutrophils; experiment: Calcium response (Cal-520 imaging) of healthy donor neutrophils stimulated with patient sera; assay type: cell-based, human; conditions: sera from AAV or COVID-19 patients pre-incubated 30 min with antibody 10 μg/mL
molecule,measurement,setting,value
NOK1,Kd,IgCD95L,5.3 nM
NOK-1,EC50,CD95L,353 µM
"JQ3 neutralizing anti-CD95L monoclonal antibody (IgG1κ) (antibody, V domains shown, Mouse (Balb/c) hybridoma antibody, IgG1 kappa, purified on protein A; also called JQ3 mAb) VH: EIQLQQTGPELVKPGASVKISCKASGFSFTDYIMVWVKQSHGKILEWIGDISPYYGTATYNLKFKGKATLTVVKSSSTAYMQLNSLTSEDSAVYYCARAPNRYEVMDYWGQGTSVTVSS VL: QIVFTQSPAIMSAFLGEEITLTCSASSSVSYMHWYQQKSGTSPKLLIYNTFNLASGVPSRFSGSGSGTFYSLTISSVEAEDAADYYCHQWSSYPTFGGGTKLEIK",Kd,[1],2.2 nM
same,EC50,[2],5.53 nM
same,binding result,[3],binds
"JQ3: neutralizing anti-CD95L monoclonal antibody (IgG1κ), mouse hybridoma; VL and VH domains given as sequences (antibody, V domains shown) VH: EIQLQQTGPELVKPGASVKISCKASGFSFTDYIMVWVKQSHGKILEWIGDISPYYGTATYNLKFKGKATLTVVKSSSTAYMQLNSLTSEDSAVYYCARAPNRYEVMDYWGQGTSVTVSS VL: QIVFTQSPAIMSAFLGEEITLTCSASSSVSYMHWYQQKSGTSPKLLIYNTFNLASGVPSRFSGSGSGTFYSLTISSVEAEDAADYYCHQWSSYPTFGGGTKLEIK",recognition of human CD95L,human CD95L,recognizes
same,recognition of simian CD95L,simian CD95L,recognizes
same,neutralizing ability (inhibition of CD95-mediated apoptotic signaling pathway),[4],stronger neutralizing anti-CD95L mAb as compared to the commercial anti-CD95L antibody NOK-1; also recorded: inhibited the CD95-mediated apoptotic signaling pathway induced in T-cell line Jurkat more efficiently than NOK-1 mAb
same,inhibition of neutrophil activation (calcium response),[5],inhibit neutrophil activation (calcium response); also recorded: blocked the CD95-mediated Ca^2+ response
